Assay results taken from the supplement of paper PMC9170038.

Assays:
[1] = test system: MS2 coat protein; experiment: apparent KD of MS2 coat protein, switch ON state; designed switch direction (-1 OFF switch, 1 ON switch): -1; higher = weaker reporter binding; conditions: FMN input: 0 or 200 uM; Eterna round: R93 (includes R88 designs)
Method in brief: (§1)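 Each design's apparent KD comes from the median of binding-curve fits to its normalised clusters. Those clusters carried RNA switches transcribed on-chip from Illumina sequencing clusters. SNAP-549-labelled MS2 coat protein was titrated onto them in twofold steps (0.7 or 1.5 nM to 3 µM; per step 0.8–1.5 h down to 10–20 min). Conditions were 100 mM Tris-HCl pH 7.5, 80 mM KCl, 4 mM MgCl2, without or with constant ligand.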

[2] = test system: MS2 coat protein; experiment: apparent KD of MS2 coat protein, switch OFF state (with FMN for OFF switches, without FMN for ON switches); designed switch direction (-1 OFF switch, 1 ON switch): -1; higher = weaker reporter binding; conditions: FMN input: 0 or 200 uM; Eterna round: R93 (includes R88 designs)
Method in brief: as §1

Sequence	apparent KD of MS2 coat protein [1]	apparent KD of MS2 coat protein [2]
AAAAAAAGAGGAUAUACGAACAUGUCAAAAGACGUGAAGGGACAUGAGGAUCACCCAUGUAGAAGGUUUAAAAA [JL Wide Open 29]	32.9 nM	15.5 nM
AAAAAACAUGAGGAUCACCCAUGUAAGGAUAUGCAAAAUAAAAGAAAUAAAAAGAAAAGCAGAAGGUAUAUGAA [JL wbt mod 7]	32.6 nM	26.7 nM
AAAAAACAUGAGGAUCACCCAUGUAAGGAUAUGCCAACAAACAAACAAACAAAAAAAAGCAGAAGGUACAAAAA [Amethyst 70]	19.8 nM	24.1 nM
AAAAAACAUGAGGAUCACCCAUGUAAGGAUAUGCUAAAAAACACGGAAAACGUGAAUAGCAGAAGGUACAAAAA [66%, Wbt, 30]	21.5 nM	38.5 nM
AAAAAACAUGAGGAUCACCCAUGUAAGGAUAUGCUGAAAAACACGGAAAAAACGUGCAGCAGAAGGUACAAAAA [66%, Wbt, 33]	20.1 nM	28.3 nM
AAAAAACAUGAGGAUCACCCAUGUAAGGAUAUGCUGAAAAACACGGAAAAAACGUGCAGCAGAAGGUACAAAAG [Mat - Exclusion 1 - Eli mod - D90]	16.1 nM	33.9 nM
AAAAAACAUGAGGAUCACCCAUGUAAGGAUAUGCUGAAAAACACGGAAAAACGUGACAGCAGAAGGUACAAAAA [66%, Wbt, 32]	21.6 nM	30.4 nM
AAAAAACAUGAGGAUCACCCAUGUAAGGAUAUGUAAAAUAAAAGAAAAAUAAAGAAAAGCAGAAGGUACAAAAA [JL wbt mod 19]	25.9 nM	25 nM
AAAAAACAUGAGGAUCACCCAUGUCAGGAUAUGCAGAAAAAGAAAAAAAGAAAAGAAAGUAGAAGGGACAAAAA [May 7]	31.2 nM	31.8 nM
AAAAAACAUGAGGAUCACCCAUGUGAGGAUAUCCAAAAGAAAAGAAAAGAAAGAAGAAGGAGAAGGCACAAGAA [Khufu]	55.2 nM	47.9 nM
AAAAAACAUGAGGAUCACCCAUGUGAGGAUAUCCAAAAGUUAAAUAAAAAGACGAAAAGGAGAAGGCGCAAAAA [Mat - Mod of Eli]	64.9 nM	39.4 nM
AAAAAACAUGAGGAUCACCCAUGUGAGGAUAUCCUAAACAAAAAAAACAAAAACAAAUGGAGAAGGCACAAAAA [Amethyst 35]	105 nM	126 nM
AAAAAACAUGAGGAUCACCCAUGUGAGGAUAUCGGAGGAGGAGGAGGAGGAGGAGGAGCGAGAAGGUACAAAAA [salish99-Ex1-04]	14.4 nM	31.5 nM
AAAAAACAUGAGGAUCACCCAUGUGAGGAUAUCUAAAACAAAACAAAAACAAAACAAAGGAGAAGGUAUAUGAA [Amethyst 67]	19 nM	29.2 nM
AAAAAACAUGAGGAUCACCCAUGUGAGGAUAUCUGUAUUCAAUCCUCGGAUUGAAUACAGAGAAGGCACAUGGA [Ex1: 610]	46.4 nM	13.8 nM
AAAAAACAUGAGGAUCACCCAUGUGAGGAUAUGACGUAAAUAAAGAAAGAAUAAAUCGUCAGAAGGCACAAAAA [Mat - Exclusion 1 - Eli mod - D72]	31.4 nM	40.3 nM
AAAAAACAUGAGGAUCACCCAUGUGAGGAUAUGAUGCGAAUAAAGAAAGAAGAAAGCAUCAGAAGGCACAAAAA [58%, Disencluded 3, 2]	25.8 nM	43.5 nM
AAAAAACAUGAGGAUCACCCAUGUGAGGAUAUGAUGCGAAUAAAGAAAGAAUAAAGCAUCAGAAGGCACACCAA [Mat - Exclusion 1 - Eli mod - D61]	27.9 nM	48.7 nM
AAAAAACAUGAGGAUCACCCAUGUGAGGAUAUGCAAAACCCAUAUAAAAAGGGAAAAAGCAGAAGGUACAAAAA [Starry Exclusion 1.2 (wbt round 1 mod)]	20.7 nM	21.3 nM
AAAAAACAUGAGGAUCACCCAUGUGAGGAUAUGCGAAAAUAAAAUAAAUAAAUAAAAAGCAGAAGGCACACCAA [Mat - Exclusion 1 - Eli mod - D60]	25.3 nM	41.1 nM
AAAAAACAUGAGGAUCACCCAUGUGAGGAUAUGCUAAAAAAAUCCGCAUAAAAAAAUAGCAGAAGGCACAUAAA [PK1]	25 nM	44.1 nM
AAAAAACAUGAGGAUCACCCAUGUGAGGAUAUGGAAAGAAAAAAAAAGAAAGAAAAAACCAGAAGGCACAAAAA [Amethyst 30]	42.8 nM	23.8 nM

Sequence	apparent KD of MS2 coat protein [1]	apparent KD of MS2 coat protein [2]
AAAAAACAUGAGGAUCACCCAUGUGAGGAUAUUGGUAUUCAAGAUAUAAUCUUAAUAGCGAGAAGGCGCAAAAA [Brourd 613 Mod 17 - Jieux - Exclusion 1]	24.1 nM	21.9 nM
AAAAAACAUGAGGAUCACCCAUGUGAGGAUAUUGGUAUUCAGGAUAUAAUCUCAAUAGCGAGAAGGCGCAUAAA [Brourd 613 Mod 16 - Jieux - Exclusion 1]	20.9 nM	18.1 nM
AAAAAACGAGGAUAUACAAAAACAAAAGGAACAAAAUACAAACAUGAGGAUCACCCAUGUAGAAGGCGUAAAAA [Default title]	29.5 nM	23.5 nM
AAAAAAGGAGGAUAUACGAACAUGUCAAAAGACGUGAAGGGACAUGAGGAUCACCCAUGUAGAAGGUUUAAAAA [JL Wide Open 32]	48 nM	15 nM
AAAAAAUGAGGAUAUACAUGAAAAAAAAAAAAAAAAAAAAAACAUGAGGAUCACCCAUGUAGAAGGCGUAAAAA [Flexi GU!]	39.8 nM	29 nM
AAAAACGUAGGAUAUACAUGAGGAUCACCCAUGUAAAAAAAAAAGGGAGAAAAAAGAAGUAGAAGGACGAAAAA [JR_Exc003_Sub002]	32.4 nM	27.1 nM
AAAAAGAAAGGAUAUACGAACAUGUCGAAAGACGUGAAGGGACAUGAGGAUCACCCAUGUAGAAGGUUUAAAAA [Mat - Exclusion 2 - JL mod - D82]	25.2 nM	17.9 nM
AAAAAGACAGGAUAUACAUGAAAAAAAAAAAAAAAAAAAAAACAUGAGGAUCACCCAUGUAGAAGGGUCAAAAA [Starry's Exclusion 2]	71.6 nM	54.6 nM
AAAAAGAGAGGAUAUACAGGAGGACCACCACAAAAAAAAAUACAUGAGGAUCACCCAUGUAGAAGGCUCAAAAA [Default title]	35.1 nM	66.1 nM
AAAAAGAUAGGAUAUACGUACAUGUCGAAAGACGUGAAGGGACAUGAGGAUCACCCAUGUAGAAGGAUUAAAAA [Mat - Exclusion 2 - JL mod - D90]	43.8 nM	14.5 nM
AAAAAGCGAGGAUAUACAUGAGGAUCACCCAUGUCAAACGGUAAGACCGCAGGAAAAAGUAGAAGGCGCAAAAA [Exclusion3-02]	65.9 nM	96.8 nM
AAAAAGCGAGGAUAUACAUGAGGAUCACCCAUGUGAAAAAAAAAAUAAUAAAUAAAAGGUAGAAGGCGCAAAAA [V1]	72 nM	87.9 nM
AAAAAGCUAGGAUAUACGAAAAAAAAGGGUAAAAUAAAUAAACAUGAGGAUCACCCAUGUAGAAGGAGCAAAAA [Mat - Exclusion 2 - Tesla mod - D37]	42.6 nM	38.3 nM
AAAAAGGAAGGAUAUACGAACAUGUCAAAAGACGUGAAGGGACAUGAGGAUCACCCAUGUAGAAGGUUUAAAAA [JL Wide Open 25]	39.3 nM	18.6 nM
AAAAAGGAAGGAUAUACGAACAUGUCGAAAGACGUGAAGGGACAUGAGGAUCACCCAUGUAGAAGGUCCAAAAA [Mat - Exclusion 2 - JL mod - D79]	47.2 nM	45.8 nM
AAAAAGGCAGGAUAUACAUGAGGAUCACCCAUGUAAAAAAAAAAAAAGGGAAAAAAAAGUAGAAGGGCCAAAAA [Khamudi]	35.8 nM	48.5 nM
AAAAAGGCAGGAUAUACGAACAUGUCAAAAGACGUGAAGGGACAUGAGGAUCACCCAUGUAGAAGGGUCAAGAA [JL Stem Breaker 18]	218 nM	52.1 nM
AAAAAGGCAGGAUAUGCAUACUCACGGAAAAAAAGGUUGGGACAUGAGGAUCACCCAUGUAGAAGGGCUAAAAA [Dora Explored 15 - Jieux - Exclusion 2]	85.2 nM	60.8 nM
AAAAAGGCAGGAUAUGCAUACUCACGGAAAAACUGGAUGGUACAUGAGGAUCACCCAUGUAGAAGGGCUAAAAA [Dora Explored 16 - Jieux - Exclusion 2]	55 nM	44.3 nM
AAAAAGGGAGGAUAUACAUGAGGAUCACCCAUGUAAAAAAAAAAAAAAAAAAGGGAAGGUAGAAGGCCCAAAAA [Excls3-I]	64.6 nM	21.1 nM
AAAAAGGGAGGAUAUACAUGAGGAUCACCCAUGUAUCAGACGAAAAAGAGUCUGAAGUGUAGAAGGCCCAAAAA [Exclusion3-cac2]	20 nM	25.6 nM
AAAAAGGGAGGAUAUGCAUAAAAAAAAAAAAAAAAAAAAAAACAUGAGGAUCACCCAUGUAGAAGGCCCAAAAA [Dora Explored - Jieux - Exclusion 2]	58 nM	36.3 nM
